Laboratory results taken from patent US20230060095A1 (Regeneron, published 2023).

T1: PRAME peptide on HLA-A*02:01 (human)
T1 peptide: RLDQLLRHV


Columns and labels:
[1] = target: T1, PRAME peptide on HLA-A*02:01; assay: multimer staining
[2] = target: T2, soluble HLA-A2:PRAME (312-320) tetramer (human); assay: flow cytometry, soluble pMHC tetramer on CHO cells expressing the TCR
T2 construct: Commercial tetramer (MBL International); construct limits, biotin tag and streptavidin/fluorophore not described; also called PRAME/HLA tetramer reagent

| Binder | binding result [1] | Cell Frequency ≥1000 MFI, ≥1% (% tetramer positive cells in the Ag+ gate) [2] |
| --- | --- | --- |
| PN46889 (TCR, V domains shown, stained with anti-mouse TCR constant region antibody H57-597) and full-length chains were expressed on CHO cells) V domain 1: QKEVEQNSGPLSVPEGAIASLNCTYSDRGSQSFFWYRQYSGKSPELIMSIYSNGDKEDGRFTAQLNKASQYVSLLIRDSQPSDSATYLCAVNIPNSGYSTLTFGKGTMLLVSP V domain 2: NAGVTQTPKFRVLKTGQSMTLLCAQDMNHEYMYWYRQDPGMGLRLIHYSVGEGTTAKGEVPDGYNVSRLKKQNFLLGLESAAPSQTSVYFCASSYWEGTEAFFGQGTRLTVV | recognises | 92.5% |
| PN46853 (TCR, V domains shown, stained with anti-mouse TCR constant region antibody H57-597) and full-length chains were expressed on CHO cells) V domain 1: ILNVEQSPQSLHVQEGDSTNFTCSFPSSNFYALHWYRWETAKSPEALFVMTLNGDEKKKGRISATLNTKEGYSYLYIKGSQPEDSATYLCACGGSGNTGKLIFGQGTTLQVKP V domain 2: AAGVIQSPRHLIKEKRETATLKCYPIPRHDTVYWYQQGPGQDPQFLISFYEKMQSDKGSIPDRFSAQQFSDYHSELNMSSLELGDSALYFCASSSQGQPQHFGDGTRLSIL | recognises | 35.4% |
| PN46731 (TCR, V domains shown, stained with anti-mouse TCR constant region antibody H57-597) and full-length chains were expressed on CHO cells) V domain 1: GENVEQHPSTLSVQEGDSAVIKCTYSDSASNYFPWYKQELGKRPQLIIDIRSNVGEKKDQRIAVTLNKTAKHFSLHITETQPEDSAVYFCAAWNYGQNFVFGPGTRLSVLP V domain 2: AAGVIQSPRHLIKEKRETATLKCYPIPRHDTVYWYQQGPGQDPQFLISFYEKMQSDKGSIPDRFSAQQFSDYHSELNMSSLELGDSALYFCASSLEGSEAFFGQGTRLTVV | recognises | 15.7% |
| PN46777 (TCR, V domains shown, stained with anti-mouse TCR constant region antibody H57-597) and full-length chains were expressed on CHO cells) V domain 1: AQTVTQSQPEMSVQEAETVTLSCTYDTSENNYYLFWYKQPPSRQMILVIRQEAYKQQNATENRFSVNFQKAAKSFSLKISDSQLGDTAMYFCALMEYGNKLVFGAGTILRVKS V domain 2: DAGITQSPRYKITETGRQVTLMCHQTWSHSYMFWYRQDLGHGLRLIYYSAAADITDKGEVPDGYVVSRSKTENFPLTLESATRSQTSVYFCASSDGTGYYGYTFGSGTRLTVV | recognises | 98.9% |
| PN46738 (TCR, V domains shown, stained with anti-mouse TCR constant region antibody H57-597) and full-length chains were expressed on CHO cells) V domain 1: AQTVTQSQPEMSVQEAETVTLSCTYDTSENNYYLFWYKQPPSRQMILVIRQEAYKQQNATENRFSVNFQKAAKSFSLKISDSQLGDTAMYFCAFGMYSGGGADGLTFGKGTHLIIQP V domain 2: DAGITQSPRYKITETGRQVTLMCHQTWSHSYMFWYRQDLGHGLRLIYYSAAADITDKGEVPDGYVVSRSKTENFPLTLESATRSQTSVYFCASSDGTGYYGYTFGSGTRLTVV | recognises | 23% |
| PN46797 (TCR, V domains shown, stained with anti-mouse TCR constant region antibody H57-597) and full-length chains were expressed on CHO cells) V domain 1: AQTVTQSQPEMSVQEAETVTLSCTYDTSENNYYLFWYKQPPSRQMILVIRQEAYKQQNATENRFSVNFQKAAKSFSLKISDSQLGDTAMYFCALMEYENKLVFGAGTILRVKS V domain 2: DAGITQSPRYKITETGRQVTLMCHQTWSHSYMFWYRQDLGHGLRLIYYSAAADITDKGEVPDGYVVSRSKTENFPLTLESATRSQTSVYFCASSDGTGYYGYTFGSGTRLTVV | recognises | 57.3% |
| PN46857 (TCR, V domains shown, stained with anti-mouse TCR constant region antibody H57-597) and full-length chains were expressed on CHO cells) V domain 1: AQKVTQATREISVVEKEDVTLDCVYETRDTTYYLFWYKQPPSGELVFLIRRNSFDEQNEISGRYSWNFQKSTSSFNFTITASQVVDSAVYFCALSEGYGNKLVFGAGTILRVKS V domain 2: NAGVMQNPRHLVRRRGQEARLRCSPMKGHSHVYWYRQLPEEGLKFMVYLQKENIIDESGMPKERFSAEFPKEGPSILRIQQVVRGDSAAYFCASSHRDDTEAFFGQGTRLTVV | recognises | 53.9% |
| PN46909 (TCR, V domains shown, stained with anti-mouse TCR constant region antibody H57-597) and full-length chains were expressed on CHO cells) V domain 1: AQTVTQSQPEMSVQEAETVTLSCTYDTSENNYYLFWYKQPPSRQMILVIRQEAYKQQNATENRFSVNFQKAAKSFSLKISDSQLGDTAMYFCAFDYGQNFVFGPGTRLSVLP V domain 2: NAGVTQTPKFRILKIGQSMTLQCAQDMNHNYMYWYRQDPGMGLKLIYYSVGAGITDKGEVPNGYNVSRSTTEYFPLRLELAAPSQTSVYFCASSYGGGQTEAFFGQGTRLTVV | recognises | 52.6% |
| PN46735 (TCR, V domains shown, stained with anti-mouse TCR constant region antibody H57-597) and full-length chains were expressed on CHO cells) V domain 1: DAKTTQPNSMESNEEEPVHLPCNHSTISGTDYIHWYRQLPSQGPEYVIHGLTSNVNNRMASLAIAEDRKSSTLILHRATLRDAAVYYCILREYMYSGGGADGLTFGKGTHLIIQP V domain 2: DAGVTQSPTHLIKTRGQQVTLRCSPISGHKSVSWYQQVLGQGPQFIFQYYEKEERGRGNFPDRFSARQFPNYSSELNVNALLLGDSALYLCASSFQAGVNYGYTFGSGTRLTVV | recognises | 17.9% |
| PN46723 (TCR, V domains shown, stained with anti-mouse TCR constant region antibody H57-597) and full-length chains were expressed on CHO cells) V domain 1: EDQVTQSPEALRLQEGESSSLNCSYTVSGLRGLFWYRQDPGKGPEFLFTLYSAGEEKEKERLKATLTKKESFLHITAPKPEDSATYLCAVQEDGGSQGNLIFGKGTKLSVKP V domain 2: DAGVTQSPTHLIKTRGQQVTLRCSPISGHKSVSWYQQVLGQGPQFIFQYYEKEERGRGNFPDRFSARQFPNYSSELNVNALLLGDSALYLCASSRDINEKLFFGSGTQLSVL | recognises | 72.5% |
| PN46714 (TCR, V domains shown, stained with anti-mouse TCR constant region antibody H57-597) and full-length chains were expressed on CHO cells) V domain 1: EDQVTQSPEALRLQEGESSSLNCSYTVSGLRGLFWYRQDPGKGPEFLFTLYSAGEEKEKERLKATLTKKESFLHITAPKPEDSATYLCAVQADGGSQGNLIFGKGTKLSVKP V domain 2: DAGVTQSPTHLIKTRGQQVTLRCSPISGHKSVSWYQQVLGQGPQFIFQYYEKEERGRGNFPDRFSARQFPNYSSELNVNALLLGDSALYLCASSLDINSPLHFGNGTRLTVT | recognises | 62.1% |

The remaining lines, values ahead:

| binding result [1] | Cell Frequency ≥1000 MFI, ≥1% (% tetramer positive cells in the Ag+ gate) [2] | Binder |
| --- | --- | --- |
| recognises | 44.7% | PN46871 (TCR, V domains shown, stained with anti-mouse TCR constant region antibody H57-597) and full-length chains were expressed on CHO cells) V domain 1: KQEVTQIPAALSVPEGENLVLNCSFTDSAIYNLQWFRQDPGKGLTSLLLIQSSQREQTSGRLNASLDKSSGRSTLYIAASQPGDSATYLCAVEGTTDSWGKFQFGAGTQVVVTP V domain 2: AAGVIQSPRHLIKEKRETATLKCYPIPRHDTVYWYQQGPGQDPQFLISFYEKMQSDKGSIPDRFSAQQFSDYHSELNMSSLELGDSALYFCASSSQGQPQHFGDGTRLSIL |
| recognises | 64.7% | PN46883 (TCR, V domains shown, stained with anti-mouse TCR constant region antibody H57-597) and full-length chains were expressed on CHO cells) V domain 1: AQKVTQAQTEISVVEKEDVTLDCVYETRDTTYYLFWYKQPPSGELVFLIRRNSFDEQNEISGRYSWNFQKSTSSFNFTITASQVVDSAVYFCALSVSSYNTDKLIFGTGTRLQVFP V domain 2: NAGVMQNPRHLVRRRGQEARLRCSPMKGHSHVYWYRQLPEEGLKFMVYLQKENIIDESGMPKERFSAEFPKEGPSILRIQQVVRGDSAAYFCASSHRDDTEAFFGQGTRLTVV |
| recognises | 31.9% | PN46880 (TCR, V domains shown, stained with anti-mouse TCR constant region antibody H57-597) and full-length chains were expressed on CHO cells) V domain 1: AQRVTQPEKLLSVFKGAPVELKCNYSYSGSPELFWYVQYSRQRLQLLLRHISRESIKGFTADLNKGETSFHLKKPFAQEEDSAMYYCALSGASGGSYIPTFGRGTSLIVHP V domain 2: NAGVMQNPRHLVRRRGQEARLRCSPMKGHSHVYWYRQLPEEGLKFMVYLQKENIIDESGMPKERFSAEFPKEGPSILRIQQVVRGDSAAYFCASSHRDDTEAFFGQGTRLTVV |
| recognises | 11.5% | PN46914 (TCR, V domains shown, stained with anti-mouse TCR constant region antibody H57-597) and full-length chains were expressed on CHO cells) V domain 1: AQKVTQAQPEISVVEKEDVTLDCVYETRDTTYYLFWYKQPPSGELVFLIRRNSFDEQNEISGRYSWNFQKSTSSFNFTITASQVVDSAVYFCALSEGYNQGGKLIFGQGTELSVKP V domain 2: DVKVTQSSRYLVKRTGEKVFLECVQDMDHENMFWYRQDPGLGLRLIYFSYDVKMKEKGDIPEGYSVSREKKERFSLILESASTNQTSMYLCASGADSNQPQHFGDGTRLSIL |
| recognises | 87.9% | PN46733 (TCR, V domains shown, stained with anti-mouse TCR constant region antibody H57-597) and full-length chains were expressed on CHO cells) V domain 1: GESVGLHLPTLSVQEGDNSIINCAYSNSASDYFIWYKQESGKGPQFIIDIRSNMDKRQGQRVTVLLNKTVKHLSLQIAATQPGDSAVYFCAENNYGQNFVFGPGTRLSVLP V domain 2: NAGVTQTPKFQVLKTGQSMTLQCAQDMNHNSMYWYRQDPGMGLRLIYYSASEGTTDKGEVPNGYNVSRLNKREFSLRLESAAPSQTSVYFCASSDWGQGVEAFFGQGTRLTVV |
| recognises | 11% | PN46678 (TCR, V domains shown, stained with anti-mouse TCR constant region antibody H57-597) and full-length chains were expressed on CHO cells) V domain 1: AQKVTQAQPEISVVEKEDVTLDCVYETRDTTYYLFWYKQPPSGELVFLIRRNSFDEQNEISGRYSWNFQKSTSSFNFTITASQVVDSAVYFCALSEFDRGSTLGRLYFGRGTQLTVWP V domain 2: DAGVTQSPTHLIKTRGQQVTLRCSPISGHKSVSWYQQVLGQGPQFIFQYYEKEERGRGNFPDRFSARQFPNYSSELNVNALLLGDSALYLCASSRDINEKLFFGSGTQLSVL |
